Experimental data from the supplement of paper PMC12042874.
± gives the uncertainty stated by the source.

Test: amyloid nucleation score (Sup35N fusion, yeast selection) (log enrichment); library NNK1; higher = more nucleation; inactive = no reads after selection
Procedure, shortened: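 Nucleation score is defined as the DiMSum log enrichment of output over input reads, with centring on the mode score of non-aggregating sequences. A minimum of 100 input reads was required for each sequence. Reads came from Illumina sequencing of plasmid inserts from psi-negative yeast expressing Sup35N fused to peptides of 20 random codons, induced with 100 μM copper sulfate for 24 hours and grown 7 days at 30°C on medium lacking adenine and uracil.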

| Substance | amyloid nucleation score |
| --- | --- |
| TVGMRYFVWVKGSKTKREER | 0.674 ± 1.2 |
| YVLWNRASIAPYIQHGLRVL | 1.19 ± 0.19 |
| LKKHADNSLDVRS | inactive |
| FATFRMSCPAKTVSVAVIGG | -0.069 ± 0.77 |
| MDLKTY | -0.696 ± 0.46 |
| SQSTLCSHTP | 1.13 ± 0.74 |
| GGVLGSTKSLFVDPANLGGL | inactive |
| HYRFCYCHSTKS | 1.76 ± 0.42 |
| PVRSL | -0.515 ± 0.48 |
| NGKSAQ | 4.05 ± 0.064 |
| LLITNGMSNDGNQCSS | inactive |
| LLNDSINNPQCFIVSSSGHL | -0.541 ± 0.39 |
| TSRFSFCGS | 1.85 ± 0.14 |
| WLVVFVDSVYARRWCELKFL | 0.39 ± 0.36 |
| GVDGFWRMVSKLPHGRLDQH | -0.123 ± 0.38 |
| IRVINYFVWSWTLTIIADFI | -1.25 ± 2.4 |
| EDDLN | 0.271 ± 0.38 |
| SLSCTTLCLEYYRYCVRTYG | 0.196 ± 0.7 |
| FNFEFLTCL | inactive |
| CRNSTVGITLIGWTSHFFNI | 1.2 ± 0.76 |
| GLKIQPLCS | 0.373 ± 0.49 |
| AYNAECSVWSRRCSIAVMDL | 0.757 ± 0.58 |

| Substance | amyloid nucleation score |
| --- | --- |
| RERESQMYFNLFSENTY | -0.435 ± 0.51 |
| RERSYRSGDYRCYSIMWSAL | -0.382 ± 0.23 |
| VSRTLAWLGMSRLNGSYGVC | -0.197 ± 0.41 |
| GSYGERIGEDVVNFARSYNG | 0.267 ± 0.38 |
| FRSTPWNPMSTELVIFSPSV | 1.16 ± 0.43 |
| FTTDVERSVLFEVNLWSNGW | 5.33 ± 0.066 |
| SLSTVNRKAV | -0.637 ± 0.57 |
| LARDYGFD | 0.051 ± 0.3 |
| GSRLCRMSSSMIGSLRVIWG | -0.146 ± 0.25 |
| GVAWMFLCYVLAA | 0.575 ± 0.27 |
| LILKISMMGK | inactive |
| LALGPLHSVLRGVINMGYGI | -0.88 ± 1.7 |
| VGMSSDCAGSLRRWRLWARL | 4.55 ± 0.1 |
| FLWIYLSNTVLG | -0.535 ± 0.33 |
| EVHGFNRCGLKSIRVHKVYA | 0.839 ± 0.62 |
| WYVLCYGPRFFYMSRLS | -0.411 ± 0.3 |
| LNATGSLPYDIMECTKELWP | -0.343 ± 0.7 |
| NNMRYTV | inactive |
| CDVLFGLLSLRYLPSSLRIG | -0.434 ± 0.48 |
| KLQIPLGQVSLGSKVMKTGV | -1.08 ± 2.4 |
| AHSAYL | 0.43 ± 0.4 |
| RYNRLCTSLGRFKVVKSILS | 0.131 ± 0.33 |

| Substance | amyloid nucleation score |
| --- | --- |
| KKRSFLGYFVSLAFYNCYQY | 2.73 ± 0.075 |
| DLIWPRTRYRSTVD | inactive |
| IVLVR | -1.21 ± 0.69 |
| SLMSLLLNFVNLTNNNLSPF | -2.99 ± 1.6 |
| PITMQSMSFFRRVLLVFFLY | 0.813 ± 0.5 |
| KDEGLTEVFESWISWGW | -0.065 ± 0.9 |
| VPVGRWRSWICVRIRL | 0.831 ± 0.65 |
| YSRMQVAIYMYLVE | 3.19 ± 0.17 |
| RLYIHHVIHVDKYNFGVYPP | 0.245 ± 0.32 |
| WFSRTPWYFVFRCNDDMDCS | inactive |
| HVIQKSN | -0.988 ± 0.5 |
| IRRRRTNIWGWAIYRAISIY | 0.345 ± 0.4 |
| YMRGGQDFYYVQDIVVFLLL | 4.24 ± 0.094 |
| TIRVLDRTFVS | inactive |
| HTVKAK | -2.11 ± 1.1 |
| QTKRSCCSFFVNL | 6.603 ± 0.05 |
| DGEAPKGSTGWTCGRVNERD | -0.125 ± 0.6 |
| LFSIGALY | -0.035 ± 0.2 |
| INVNRG | 0.239 ± 0.56 |
| STLYLLHGRNSHTGRSFSRH | -1.01 ± 0.66 |
| LSWYPCWVARSTMALDGYGV | -0.776 ± 0.55 |
| IGHGTHG | 0.282 ± 0.49 |

| Substance | amyloid nucleation score |
| --- | --- |
| RLFRNTPSDFTFVYTCGRDA | 0.497 ± 0.57 |
| VTRFSAGTITVLTRDWRANC | -0.486 ± 1.6 |
| GVCWLKIRALPDSYWLVFL | -0.776 ± 0.74 |
| FLDMVVMGCEFRPSGGFSSV | -0.156 ± 0.38 |
| VFLIDLLLTMCFFLYGAFLV | 0.76 ± 1.1 |
| FCGDVKLMYWSRFVLMKGHQ | -1.18 ± 1.1 |
| VCWYWVGILRMMICACTSPS | 0.362 ± 0.43 |
| TVWYITTLAGEFAA | 1.09 ± 0.53 |
| LPVLSGWTNTAA | -0.73 ± 0.59 |
| IILSAHVLSRTFLAFVSQKE | 0.146 ± 0.77 |
| RMHRTDWASIHKDGRPQRRF | 1.23 ± 0.76 |
| VETRRWFHRL | -0.177 ± 1.4 |
| WTLQMLAYWYLTFFFPSFVY | 0.169 ± 0.37 |
| FYPIYGFRWTIFYQPALYNL | -1.08 ± 1.7 |
| AWQRVSVKFELGDIGPEGLY | -0.668 ± 0.31 |
| CSILYAAPKIRQSARFLMLS | 0.451 ± 0.32 |
| MDWLEYHMSFCSHV | 0.07 ± 0.26 |
| VHVLWLWQSMLLVHWSAV | 1.29 ± 0.93 |
| VFRDVHD | 0.417 ± 0.42 |
| QDDISLKFLGFGMIVSLIMF | 0.007 ± 0.24 |
